Consider six molecules from patent US20060275758A1, “Use of pp2a phosphatase modulators in the treatment of mental disorders” (priority 2002, published 2006).

In one data set the test system is PP2A phosphatase. Kind of data set: In vitro dephosphorylation of phosphorylated GST-2E11 with HTB-14 whole cell extracts. The class given is biochemical, Human. Conditions: HTB-14 cell extracts (500 μg) plus 400 μM okadaic acid, 30 min, room temperature. As to the method:
In vitro phosphorylated GST-2E11 fusion protein was incubated at room temperature for 30 min with 500 μg of whole cell extracts of Human glioblastoma, astrocytoma cell line (ATCC number: HTB-14) with or without 400 μM of the PP2A phosphatase inhibitor okadaic acid (Sigma). HTB-14 whole cell extracts were prepared as follow: cells were washed three times with ice-cold TBS buffer (10 mM Tris-HCl [pH 8.0], 120 mM NaCl) and lysed at 4° C. for 30 min in EBC buffer (50 mM Tris-HCl [pH 8.0], 120 mM NaCl, 0.5% Nonidet P-40). Then the lysate was centrifugated for 10 min at 13.000×g at 4° C. to pellet cell debris. Proteins present in the supernatant were quantified by the standard Bradford's method (Bio-Rad Protein Assay). The proteins were then resolved by 10% SDS-PAGE, and visualized by autoradiography.
The phosphorylated radiolabeled GST-2E11 proteins obtained from the previous assay were incubated in the presence of HTB-14 cell extracts containing the PP2A phosphatase to determine whether PP2A is capable of dephosphorylating GST-2E11 proteins. In this experiment, a protein that is dephosphorylated by PP2A is not radioactive after incubation in the presence of HTB-14 cell extracts any more. Thus dephosphorylation of the GST-2E11 protein is monitored by disappearance of the signal visualized by autoradiography. […]

For data set [1], the system named is GST-2E11 recombinant protein.
The target in the next data set is GSK-3β. Kind of data set: In vitro phosphorylation assay of GST-2E11 (KCNQ2-15b fusion protein) with recombinant GSK-3β kinase and PKA. Type of data set: biochemical. Conditions: LiCl added to the kination mix (0, 8.3, 25, 75, 225 mM); autoradiography band at about 45 kD; read-out: LiCl concentration at which the phosphorylation state of GST-2E11 was reduced by 50%. As to the method: Expression and purification of the GST-2E11 fusion protein were performed as described above. Beads with bound fusion protein corresponding to 1 ml of bacterial clear lysate were washed three times in NETN and one time with HMK buffer without DTT (20 mM Tris-HCl [pH 7.5], 120 mM NaCl, 12 mM MgCl2). Beads were resuspended in 240 μl of reaction mix (24 μl of 10× HMK Buffer with 20 mM DTT, 40 units of Protein Kinase A Catalytic Subunit [PKA from bovine heart, 250 units/vial, Sigma] in 40 mM DTT, 5 μl of 24 mM ATP and 207 μl of distilled water) and incubated for 30 min at room temperature. Beads were then washed three times in NETN buffer and one time in GSK -3β reaction buffer (20 mM Tris-HCl [pH 7.5], 10 mM MgCl2, 5 mM DTT) (New England Biolabs). Beads were then resuspended in 50 μl of reaction mix (5 μl of 10× GSK-3β reaction buffer, 1 μl of [^32P]γATP 10 mCi/ml, 50 U of recombinant GSK-3β[New England Biolabs], and distilled water for a final volume of 50 μl) and incubated at room temperature for 30 min. After three washes in NETN buffer, phosphorylated proteins were boiled in 2× Sample Buffer (125 mM Tris-HCl [pH 6.8], 4% SDS, 20% glycerol, 1.4 M β-Mercapto ethanol), resolved by 10% SDS-PAGE, and visualized by autoradiography.
In this phosphorylation assay, non-radiolabeled polypeptides to be tested are incubated in the presence of GSK-3β, PKA and radioactive ATP. […]

The target of a further data set is T1, GST recombinant protein (UniProt P08515 1-218 = GST).
T1 construct: Negative control in the overlay assay; also called Glutathione S-transferase; pGEX2TK plasmid product
Kind of data set: solid phase overlay assay: GST blotted on nitrocellulose, probed with 32P-labeled GST-PPP2R2C, autoradiography.

Procedure for GST recombinant protein: After 4.5 hr of incubation, the membrane was washed with Hyb75 buffer, 1 mM DTT, 1% (w/v) non-fat dry milk three times for 15 min at room temperature. The blots were analyzed by autoradiography.

Take `C=C1[C@@H](O)[C@@H]2O[C@]3(CC[C@H](/C=C/[C@@H](C)[C@@H]4CC(C)=C[C@@]5(O[C@H](C[C@@](C)(O)C(=O)O)CC[C@H]5O)O4)O3)CC[C@H]2O[C@@H]1[C@@H](O)C[C@H](C)[C@H]1O[C@@]2(CCCCO2)CC[C@H]1C` [okadaic acid]: the “intensity of the GST-2E11 band versus the band of phosphorylated GST-2E11 (reference)” value in the data set on PP2A phosphatase is given as “only slightly weaker”. Regarding “PP2A phosphatase in HTB-14 whole cell extracts”, in data set [1], the “dephosphorylation of 32P-phosphorylated GST-2E11 (loss of the autoradiography band), with or without okadaic acid” value is reported as “In the line loaded with GST-2E11 fusion proteins incubated in the presence of HTB-14 cell extracts, the band had an extremely weaker intensity”.

Turning to `[Cl-].[Li+]` [LiCl], the IC50 on GSK-3β is around 50 mM. For “Protein Kinase A Catalytic Subunit (PKA from bovine heart, Sigma)”, in data set [1], the “phosphorylation of GST-2E11 with 5 µg of CREB phosphopeptides added as competitor” value is reported as “A band did still appear at a position corresponding to the size of GST-2E11, but the intensity of the band was very significantly lower”; the “phosphorylation with [32P]γATP, band at about 45 kD by autoradiography” value is “Thus the GST-2E11 protein is phosphorylated by GSK-3β and PKA in vitro”. As for “recombinant GSK-3β kinase (New England Biolabs)”, in data set [1], the “phosphorylation of GST-2E11 with 5 µg of CREB phosphopeptides added as competitor” value is “A band did still appear at a position corresponding to the size of GST-2E11, but the intensity of the band was very significantly lower”; the “phosphorylation with [32P]γATP, band at about 45 kD by autoradiography” value was “Thus the GST-2E11 protein is phosphorylated by GSK-3β and PKA in vitro”.

B1: GST-PPP2R2C radiolabeled recombinant protein (other)
chain: MGEDTDTRKINHSFLRDHSYVTEADIISTVEFNHTGELLATGDKGGRVVIFQREPESKNAPHSQGDYDVYSTFQSHEPEFDYLKSLEIEEKINKIKWLPQQNAAHSLLSTNDKTIKLWKITERDKRPEGYNLKDEEGKLKDLSTVTSLQVPVLKPMDLMVEVSPRRIFANGHTYHINSISVNSDCETYMSADDLRINLWHLAITDRSFNIVDIKPANMEDLTEVITASEFHPHHCNLFVYSSSKGSLRLCDMPAAALCDKHSKLFEEPEDPSNRSFFSEIISSVSDVKFSHSDRYMLTRDYLTVKVWDLNMEARPIETYQVHDYLRSKLCSLYENDCIFDKFECAWNGSDSVIMTGAYNNFFRMFDRNTKRDVTLEASRESSKPRAVLKPRRVCVGGKRRRDDISVDSLDFTKKILHTAWHPAENIIAIAATNNLYIFQDKVNSDMH
modifications: radiolabeled with [32P]-γATP by Protein Kinase A Catalytic Subunit
notes: Used as the soluble probe in the solid phase overlay assay; also called PP2A/Bγ; pGEX-2TK-PPP2R2C; not shown: glutathione S-transferase encoded by the pGEX-2TK vector (Amersham Pharmacia Biotech)
Turning to B1, the binding result in the data set with GST recombinant protein is “no binding (tested: 100 ng, 10 ng and 0.1 ng of GST loaded)”.
